Data on 5 molecules can be found in article PMC3635657 (Biochemical Journal, 2013).

To fix the notation:
B1: TorD^His (hexahistidine-tagged TorD) (natural protein, E. coli, UniProt P36662 1-199, looked up)
chain: MTTLTAQQIACVYAWLAQLFSRELDDEQLTQIASAQMAEWFSLLKSEPPLTAAVNELENRIATLTVRDDARLELAADFCGLFLMTDKQAALPYASAYKQDEQEIKRLLVEAGMETSGNFNEPADHLAIYLELLSHLHFSLGEGTVPARRIDSLRQKTLTALWQWLPEFVARCRQYDSFGFYAALSQLLLVLVECDHQNR
B2: TorAΔCT (TorA Δ676–848, lacking its entire C-terminal Domain IV) (domain or fragment, E. coli, UniProt P33225 1-675, looked up)
chain: MNNNDLFQASRRRFLAQLGGLTVAGMLGPSLLTPRRATAAQAATDAVISKEGILTGSHWGAIRATVKDGRFVAAKPFELDKYPSKMIAGLPDHVHNAARIRYPMVRVDWLRKRHLSDTSQRGDNRFVRVSWDEALDMFYEELERVQKTHGPSALLTASGWQSTGMFHNASGMLAKAIALHGNSVGTGGDYSTGAAQVILPRVVGSMEVYEQQTSWPLVLQNSKTIVLWGSDLLKNQQANWWCPDHDVYEYYAQLKAKVAAGEIEVISIDPVVTSTHEYLGREHVKHIAVNPQTDVPLQLALAHTLYSENLYDKNFLANYCVGFEQFLPYLLGEKDGQPKDAAWAEKLTGIDAETIRGLARQMAANRTQIIAGWCVQRMQHGEQWAWMIVVLAAMLGQIGLPGGGFGFGWHYNGAGTPGRKGVILSGFSGSTSIPPVHDNSDYKGYSSTIPIARFIDAILEPGKVINWNGKSVKLPPLKMCIFAGTNPFHRHQQINRIIEGLRKLETVIAIDNQWTSTCRFADIVLPATTQFERNDLDQYGNHSNRGIIAMKQVVPPQFEARNDFDIFRELCRRFNREEAFTEGLDEMGWLKRIWQEGVQQGKGRGVHLPAFDDFWNNKEYVEFDHPQMFVRHQAFREDPDLEPLGTPSGLIEIYSKTIADMNYDDCQGHPMWFEK
B3: TorAΔSP (TorA Δ2–39, lacking its entire Tat signal peptide) (domain or fragment, E. coli, UniProt P33225 40-848, looked up)
chain: AQAATDAVISKEGILTGSHWGAIRATVKDGRFVAAKPFELDKYPSKMIAGLPDHVHNAARIRYPMVRVDWLRKRHLSDTSQRGDNRFVRVSWDEALDMFYEELERVQKTHGPSALLTASGWQSTGMFHNASGMLAKAIALHGNSVGTGGDYSTGAAQVILPRVVGSMEVYEQQTSWPLVLQNSKTIVLWGSDLLKNQQANWWCPDHDVYEYYAQLKAKVAAGEIEVISIDPVVTSTHEYLGREHVKHIAVNPQTDVPLQLALAHTLYSENLYDKNFLANYCVGFEQFLPYLLGEKDGQPKDAAWAEKLTGIDAETIRGLARQMAANRTQIIAGWCVQRMQHGEQWAWMIVVLAAMLGQIGLPGGGFGFGWHYNGAGTPGRKGVILSGFSGSTSIPPVHDNSDYKGYSSTIPIARFIDAILEPGKVINWNGKSVKLPPLKMCIFAGTNPFHRHQQINRIIEGLRKLETVIAIDNQWTSTCRFADIVLPATTQFERNDLDQYGNHSNRGIIAMKQVVPPQFEARNDFDIFRELCRRFNREEAFTEGLDEMGWLKRIWQEGVQQGKGRGVHLPAFDDFWNNKEYVEFDHPQMFVRHQAFREDPDLEPLGTPSGLIEIYSKTIADMNYDDCQGHPMWFEKIERSHGGPGSQKYPLHLQSVHPDFRLHSQLCESETLRQQYTVAGKEPVFINPQDASARGIRNGDVVRVFNARGQVLAGAVVSDRYAPGVARIHEGAWYDPDKGGEPGALCKYGNPNVLTIDIGTSQLAQATSAHTTLVEIEKYNGTVEQVTAFNGPVEMVAQCEYVPASQVKS

The target of assay [1] is TorD^His (hexahistidine-tagged TorD) (E. coli) (UniProt P36662). The assay can be described thus: SEC-MALS. A general note: SEC sorts molecules by how far they enter the pores of the column.
Assay [2] has as its target TorA signal peptide signal peptide (Escherichia coli) (UniProt P33225). Particulars: cited from earlier work.
Assay [3] deals with B3. In words: pull-down.
Assay [4] concerns the target B1. The assay can be described thus: SEC-MALS.

Consider “TorA, full-length precursor (trimethylamine N-oxide reductase), cofactor-free (from UniProt P33225 40-848) (natural protein)”, for which, in assay [1], the stoichiometry N (usually the number of molecules, sites or subunits per partner or assembly) amounted to 1.
Consider TorD (from UniProt P36662), for which the Kd (commonly a measure of binding affinity in units of concentration) in assay [2] is 59 nM.
Consider B1, for which the binding result in assay [3] is given as “binds”.
As to B2, in assay [4], the “stoichiometry N” value worked out at 1.
As to B3, the “stoichiometry N” value in assay [4] was determined as 1.
